Experimental data as given in publication PMC2885933 (The EMBO Journal, 2010).

Target: T1, ORF57-6xHis (Kaposi's sarcoma-associated herpesvirus …, UniProt Q2HR75 1-455)
T1 sequence: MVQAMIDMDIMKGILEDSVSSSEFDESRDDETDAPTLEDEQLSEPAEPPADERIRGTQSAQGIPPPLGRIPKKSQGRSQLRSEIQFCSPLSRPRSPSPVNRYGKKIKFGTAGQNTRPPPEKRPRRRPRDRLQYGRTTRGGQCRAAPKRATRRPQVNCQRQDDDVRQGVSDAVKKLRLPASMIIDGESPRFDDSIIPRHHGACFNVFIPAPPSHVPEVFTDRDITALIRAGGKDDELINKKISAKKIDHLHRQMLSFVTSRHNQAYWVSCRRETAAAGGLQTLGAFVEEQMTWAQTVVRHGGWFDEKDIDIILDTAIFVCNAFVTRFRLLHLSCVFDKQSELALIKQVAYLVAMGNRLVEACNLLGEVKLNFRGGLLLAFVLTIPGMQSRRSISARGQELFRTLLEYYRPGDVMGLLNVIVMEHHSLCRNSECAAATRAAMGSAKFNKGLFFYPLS
Assay: pull-down

B1: GST-PYM (natural protein)
chain: not shown
Q: Does B1 bind?
A: binds
